Measured values from the NTF2 design screens of Basanta et al. (2020).

Assay: protease stability score; higher = more stable; yeast display proteolysis, trypsin and chymotrypsin;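 also: log10 excess protease needed over predicted unfolded state with 0 meaning unfolded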

In order of rising protease stability score:
1. DEDKNNRDMQDMIRAVITNDEKRVQELMDPNASVTVGDHTFKGTEAVTHLITDLRNHIDHVELNSVSVHNGKAKADMVFTVNGQHVKIEMNAQAHNGKVTQFDVSARSEEEHKKYKQ  -0.542
2. DEDKMKEIAKKFMDYLVNGHADEVRKMGKEGVRVHVGDTTIQGPDQLKEYVKKFKDQGVHNEYKEEEVKGDTITMHTKAQLGNAEVDFEVHYVVKGDKVEKFEVKTDKKQQEKFKKS  -0.352
3. DEDKLTDKAHQIIRALETGDPDQIRNLAPPNVRFDYGDKRYHGREKAEERAKRERENIDHMEIKDFDVQGNKIQIRAVVEHNGRSREFVVTFEQNNGTLRFARMQSK  -0.342
4. DEDLERKVKELMEVLKSGDESKWMEMVDPNARVQVGDTEIHGRENRREDLKRHKEDSRLDLKSYNVRVHNGQVEVHMSYTYEHNGQPRTSQATARFQLHNGRITEVNVNTTK  -0.309
5. DEDKMLKVAKEAVEAITKGNAEQIKKVGKEGVQVTFGDEKYHGPDQLEEYVKKVKDQGNHIEYKEQEFKGDTATVKTEAEKGDQKVTFEVHYQVKGNKLDRLEVRFDKEQQKKFEQS  -0.256
6. DEDKRKLVEDLIEAEERGDNERIKELADKDAEYIYGDKTVEGREEHAKEVKKKHDQQRVKITSMRINAHGDKIQVSIEYTVEDNGQPRRARVHIKFVIHNGRFQSMHIQDHR  -0.253
7. DEDLARRLAEEMVKKATHGDEDTVRELIDPNVKFRYGDKDVEGRENFATELAEDMRTADHVHLKQVTIRGDTVQIDMRMVFDGSEDRHDLRLRAHNGKVQEVTIDQG  -0.112
8. DEDKLREVAEEMNKGDPQTLADNADKDARLRVGDREWHGREDVEKFNNQWRREVDHVDIERVTVSPNRVEAVYVVTVNGKRIHAKFEAKVHDGRIKEMTVSVTNPEQQKDLERQVD  -0.1
9. DEDKNKKRAEEWQRILEDNDEERFSKLADKDVRFVIGDKEVHGSEQAETWIRTIKHRVDHIQLEDMKVNGNKIVIDLVMVHNGRKHRYKVVMEFHNGSVKYVQYNDS  -0.06
10. DEDKNKEAVERFLHNLENGDWQSLADLADKNAKVQIGDETVSGRESAQNELRKFAERVDHVDYHDMTVQGDKFEVVFQEDHNGRKRKVVAEFRVKNGRFKHVVFDDG  -0.008
11. DEDKNKKFADKVVRALEQNNEEEMNELFPPDARVEVGDKQIHGREEIQKYMQKIRDQVDHVEVKSMEVDGDKITVHVTVHHNGTSRTVVFIFHVRNGRLTEMKVKTG  0.04
12. DEDKTMRELIRRLDKNLKEGDPSKAREQADKDARANIGEKRVTGRKRLDEEVKTLLDSYDHIRVHLKEVRVENGSAVARVDYHYDQNGQEKSKEVILHARFQGDRLTLEQMTMP  0.043
13. DEDKMKSILTVAQEGDPDEMKRQADEDARVHIGDKRVHGRESFQKAMDEYTKAVDSQHVKRVSSRENRVKVTAVLRFNGSHIDVVVQIRAHNGRIEEIIFRVTDPKQKTTLKKIIS  0.053
14. DEDKVAHDMMKEIQSIFERGDRDTWRRMFDPNAEMHVGDKRIHGREHFSRWAQRSVERVDHHEMHVRSVSVDNGTITVSAVEVENVNGHEDKRRFVVRANLEGDKVQWKRRSEQ  0.096
15. DEDKQRKRAETAAHIVENNNPDEQNKLADKDVTMQVGETQVHGREDLKELMEEMREQFDHIRVRSFDAHGNKVRLRFHAEYNGVTLEFVIINNYHNGKVQSINLRVTNPEEFRKAQG  0.122
16. DEDKVERLKHMWKVVEEGDEDKLREQFDKDASVTVGDKVLTGRENLARHWKRIRDELRFSMTMEKVEVHNGVVDIRVTATEDNNGRPQHKVADVRVDMHNGRIKVLEVDETK  0.154
17. DEDKQLHELFERLVEAIRNGDPKKYQDNADENAKIRVGDKEYTGREQLEKLVEDIRKDVDHLEVDFKRVKVEGDKATAIVKVRANFNGKNDDTMYQYQAKIHGDKIHVVNVQQS  0.165
18. DEDKQHEFATRNVKAWETNDENQMRRLMDPNAKVRIGDKEYRGREEILRLLNEFKKRVDHVQVKSYDVHNGHVHINIVASVNGQRHEMHVKFQFHNGEIVKMQIDDS  0.203
19. DEDLDKQAQEFIHAMQEGDPQRLSEQMDPNARFHVGEKNIHGKEEVMRDFQRTVDQAEIEFKEYSVRAEPGRVRIKLHYVDNNDGRPHSKVQDMVIVFHNGKLVVIDVNDSQ  0.236
20. DEDKMLKIAQEMAEAVVNGNVEQMKKQAHEGVQVHVGDEEVHGPDQLEEYVKKFKDQGVEVHYKETEHKGDTVTLKTTAVLGDAQVEFEAHYVVKGDKLQRFEVKLNKEQLKDFRKS  0.242
21. DEDKTAEQVAETIQKIWEKGDPTKMEKLFDPNASINVGEKTVKGREKIFTEAKKLMKEADHVRVTVQHVEARGDHVIVRFTFTLHVNGKNRKHEVEINAEDKNGHLRARDIKMR  0.351
22. DEDKVRKFQEYIEAYRRGDEQKLLKLMDPNVHVEIGDRRYHGHEDMEKILHKEIREIRVDVKIQSIEVRNGHITAHLVMSVNVNGHPVQMQFTVVIEMTNGKIKSIKYRVSEEQKRRFDS  0.49
23. DEDKVNEFMRHFLDVFETGNEKDVKKMADPNAKIEYGDKTLHGRENLRKVIADWRKRVDRIQIEHVDLQGNKARIIVVLNINGRNIRVDIDVNVHNGEIKSIRFEFTDPKTLQRATS  0.649
24. DEDKLRDVAKRLQEIIHTNNPDDLNKQADKDARVQVGDKEYKGRRDVYKFMETLKHQVDQIEIHDVKFDGDHAHFHVMMNVNGKKVEVHIIMEVENGKVKELNFDPKNMEQLDK  0.708
25. DEDLERIIRRFMTALETGDPEELKKQMDENVRVQVGDKVLNGREEAAKHWTKVRDDLRIKIDTFHVENNGNRIDLSVDAEAEHNGRPQRYTLHMKAQVHNGKIKNATFTREQ  0.868
26. DEDKQAKEMMKRFVHMMQEGDPSEAKRLFDKNARLVVGDKRFHGQHEASKFAEEIKKRYDKVHVELKDLKVHGDKVDAKAKVVLNDNGQKDTHEVVITALFHNGRIKVQEVRVQ  0.983
27. DEDLAKRFVTFIKIMLNGDPDKLEKMMDENATVNVGDRRLTGHETIAKDLHRLINESRVHIQLRDFDVRPGRVELEFEAERKHDGRPHTSRFIVIVKDHNGKMVKIVVKQTK  1.02
28. DEDKQRKTADEIQKVIKQGDEKKAEDLFDENAKLSIGDKFYRGKEDFKRWFRSLRDRIDHFQVKDLEVDGERAEFVVVFHVNGKNVEMVIEIHVHNGKVKHARVNPEDERKLNT  1.05
29. DEDKVRELVKKAFKAIVNGNEEEVRKLLDPNVKYKYVDKEFEGEEVAKFLVEMVRKLGAKVETEKTHIEGNTARATFVYKLGDQKVQTHAEVKYEGDKVKEVRVEMTDEDKKQLHRG  1.17
30. DEDKRAREAAETAIQALRTGDPDKMVKLMDPNARVRVGDKTVTGHEEIRRWMQTIQDQIDHADITVESLTVNNGRAELIFVANFDRNGRTERTRYNLEIDVRGDKVQAHQMDHG  1.22
31. DEDKVKKIAEELWKAISNGDEERMKKLMRDDVRAQVGDTEVHGREHVVHQLATFAKQVDHLTMETYDIRGNHVTFRFQARVNGKRVQIDMVIHVSNGRIKELRIDPKQVKELES  1.22
32. DEDLERKAKKYIDALDTGDPDEVSKLVDPNVKFMYGDKTFHGRDQLRRIIQRISDQQRVHVDIKTFSAKGDKVEIKARIEVETDGRPRQFHAIYRMRVHNGKITHISVEMRQ  1.23
33. DEDKMKEVIEKVLRMLETGDPHEASKLADENAKIRYGDKTYHGRDQVHELLDRITKRVDHVEIKDFSVQGEQLVLHFVLNINGKNKEVVLVATVHNGRIKSLHVDDQ  1.26
34. DEDKLKSMFRQLQRVLTQGNPHDARKLFDEDAHLVVGDKRWTGREEVVKFIEELTRRYDHLEIKSFSVSNGRMVVNASAHVNGKSIDIHYIMEVDNGRVKYLRVDVRNEEELKKVLS  1.27
35. DEDKLTRVEDFLRLQEQNNEDELLKQMDPNATQRYGNKHVHGSSEVKRFLHRLHREMRIRVEMKSVEVHGDEVVMKADFSKTFNGRPETLTATVVFKVHNGRIQKIIFEERK  1.41
36. DEDKRARKFADTMRKVLEKGNEEEFRDMMDKDVSFKYGDKEVRGREEAAKRLKDTVKRVDRVEVNIKSIHVQGDKVSIDMLIVNDHNGKHHHRRLVFYAKDDNGKLVVVKVTER  1.86
